From article PMC10718521, “Complexity of αvβ6-integrin targeting RGD peptide trimers: emergence of non-specific binding by synergistic interaction” (RSC Medicinal Chemistry, 2023)

Experiments:
[1] = type: physicochemical; details: pH 7.4
Protocol: The trimers were labeled with ^68Ga for biodistribution and small-animal PET experiments employing a fully automated method.[39] Non-radioactive reference compounds were obtained by complexation of equimolar amounts of ^natGa^3+ in form of the aq. chloride solution.[39] The polarity of the ^68Ga or ^natGa^3+ containing conjugates, respectively, was assessed by two established proxies, namely the n-octanol/water distribution coefficient at pH 7.4, log D7.4, and the retention time tR on a reverse-phase HPLC column with a suitable liquid-phase gradient (10–50% acetonitrile in water with 0.1% trifluoroacetic acid) (see Fig. 2a). […] A measurable decrease of the log D7.4 was only observed for ≥3 Tyr. […]
(§1) Unless otherwise noted, the materials and the instrumentation used (analytical and preparative HPLC, ESI-MS, gamma counter, centrifuge), and the experimental procedures (^68Ga radiolabeling and radio-TLC for quality control, determination of log D7.4, cultivation of H2009 human lung adenocarcinoma cells, generation of tumor xenografts in CB17 SCID mice, small-animal PET, and biodistribution) were described before.[19] All animal experiments have been carried out according to applicable law and institutional guidelines of Technical University of Munich, and were approved by the responsible local authority (Regierung von Oberbayern). The H2009 cells were regularly authenticated and tested for mycoplasma contamination. The affinities of the pentynoic amide functionalized peptides were determined employing a well-established ELISA protocol on immobilized integrins.[36] TRAP-triazide,[38]FF (previously termed AvB6),[32] and YY (also referred to as Tyr2-alkyne)[33] were synthesized as described previously. RP-HPLC for assessment of compound polarity was done on a 150 × 4.6 mm ReproSil-Pur 120 C18-AQ 5 μm column, with a flow of 0.75 mL min^−1 and a gradient of 10–50% MeCN in water, both containing 0.1% trifluoroacetic acid, within 15 min. The required ^natGa-complexes of the peptide trimers were synthesized by reaction with equimolar amounts of aq. GaCl3 as described.[19]

in vivo = assay: in vivo; set-up: species or system mice; details: CB17 SCID, mouse, total radioactivity
Text: The biodistribution of all ^68Ga-labeled peptide trimers was investigated in severe combined immunodeficiency (SCID) mice bearing subcutaneous xenografts of the αvβ6-integrin expressing human lung adenocarcinoma cell line H2009 on their right shoulders.
as §1

CC(C)C[C@@H]1NC(=O)[C@H](CC(=O)O)NC(=O)CNC(=O)[C@H](CCCNC(=N)N)NC(=O)[C@H](Cc2ccccc2)NC(=O)[C@H](CCCCNC(=O)CCc2cn(CCCNC(=O)CCP(=O)(O)CN3CCN(CP(=O)(O)CCC(=O)NCCCn4cc(CCC(=O)NCCCC[C@H]5C(=O)N[C@@H](Cc6ccccc6)C(=O)N[C@@H](CCCNC(=N)N)C(=O)NCC(=O)N[C@@H](CC(=O)O)C(=O)N[C@@H](CC(C)C)C(=O)N[C@@H](C)C(=O)N[C@@H](Cc6ccccc6)C(=O)N6CCC[C@@H]6C(=O)N5C)nn4)CCN(CP(=O)(O)CCC(=O)NCCCn4cc(CCC(=O)NCCCC[C@H]5C(=O)N[C@@H](Cc6ccc(O)cc6)C(=O)N[C@@H](CCCNC(=N)N)C(=O)NCC(=O)N[C@@H](CC(=O)O)C(=O)N[C@@H](CC(C)C)C(=O)N[C@@H](C)C(=O)N[C@@H](Cc6ccc(O)cc6)C(=O)N6CCC[C@@H]6C(=O)N5C)nn4)CC3)nn2)N(C)C(=O)[C@H]2CCCN2C(=O)[C@H](Cc2ccccc2)NC(=O)[C@H](C)NC1=O (68Ga complex, metal not drawn) [Y2]
log D7.4 [1]: −1.4 to −1.5
logD [1]: -1.5 ± 0.2
tissue uptake at 1.5 h (in vivo; Adrenals uptake): 1.5 ± 1.28 %ID/g
tissue uptake at 1.5 h (in vivo; Blood uptake): 2.26 ± 0.26 %ID/g
tissue uptake at 1.5 h (in vivo; Heart (myocard) uptake): 1.08 ± 0.13 %ID/g
tissue uptake at 1.5 h (in vivo; Kidneys uptake): 92 ± 12.2 %ID/g
tissue uptake at 1.5 h (in vivo; Large intestine (empty) uptake): 3.81 ± 0.53 %ID/g
tissue uptake at 1.5 h (in vivo; Liver uptake): 3.37 ± 0.68 %ID/g
tissue uptake at 1.5 h (in vivo; Lung uptake): 4.8 ± 0.5 %ID/g
tissue uptake at 1.5 h (in vivo; Muscle uptake): 0.72 ± 0.15 %ID/g
tissue uptake at 1.5 h (in vivo; Pancreas uptake): 0.65 ± 0.12 %ID/g
tissue uptake at 1.5 h (in vivo; Small intestine (empty) uptake): 2.55 ± 0.27 %ID/g
tissue uptake at 1.5 h (in vivo; Spleen uptake): 2.51 ± 0.33 %ID/g
tissue uptake at 1.5 h (in vivo; Stomach (empty) uptake): 7.17 ± 0.58 %ID/g
tissue uptake at 1.5 h (in vivo; Tumor H2009 uptake): 7.95 ± 1.02 %ID/g
tissue to tissue ratio at 1.5 h (in vivo; tumor/organ ratio Adrenals): 8.8 ± 6.2
tissue to tissue ratio at 1.5 h (in vivo; tumor/organ ratio Blood): 3.5 ± 0.5
tissue to tissue ratio at 1.5 h (in vivo; tumor/organ ratio Heart (myocard)): 7.4 ± 0.6
tissue to tissue ratio at 1.5 h (in vivo; tumor/organ ratio Kidneys): 0.1
tissue to tissue ratio at 1.5 h (in vivo; tumor/organ ratio Large intestine (empty)): 2.1 ± 0.2
tissue to tissue ratio at 1.5 h (in vivo; tumor/organ ratio Liver): 2.4 ± 0.4
tissue to tissue ratio at 1.5 h (in vivo; tumor/organ ratio Lung): 1.7 ± 0.2
tissue to tissue ratio at 1.5 h (in vivo; tumor/organ ratio Muscle): 11.4 ± 2.4
tissue to tissue ratio at 1.5 h (in vivo; tumor/organ ratio Pancreas): 12.7 ± 2.9
tissue to tissue ratio at 1.5 h (in vivo; tumor/organ ratio Small intestine (empty)): 3.1 ± 0.5
tissue to tissue ratio at 1.5 h (in vivo; tumor/organ ratio Spleen): 3.2 ± 0.7
tissue to tissue ratio at 1.5 h (in vivo; tumor/organ ratio Stomach (empty)): 1.1 ± 0.1
